The values below come from PMC10183829, “Shuffled ATG8 interacting motifs form an ancestral bridge between UFMylation and autophagy” (The EMBO Journal, 2023).

B1: GABARAP (purified) (natural protein, human)
chain: FVYKEEHPFEKRRSEGEKIRKKYPDRVPVIVEKAPKARIGDLDKKKYLVPSDLTVGQFYFLIRKRIHLRAEDALFFFVNNVIPPTSATMGQLYQEHHEEDFFLYIAYSDESVYG
notes: GABARAP, Homo sapiens; 15N-labelled in the NMR titration; also called HIS6-3C-GABARAP; HIS6-GABARAP; source: E. coli Rosetta2 (DE3) pLysS, purified (HisTrap, ion exchange, SEC)
B2: HsC53^cAIM (purified, ITC) (natural protein)
chain: MEDHQHVPIDIQTSKLLDWLVDRRHCSLKWQSLVLTIREKINAAIQDMPESEEIAQLLSGSYIHYFHCLRILDLLKGTEASTKNIFGRYSSQRMKDWQEIIALYEKDNTYLVELSSLLVRNVNYEIPSLKKQIAKCQQLQQEYSRKEEECQAGAAEMREQFYHSCKQYGITGENVRGELLALVKDLPSQLAEIGAAAQQSLGEAIDVYQASVGFVCESPTEQVLPMLRFVQKRGNSTVYEWRTGTEPSVVERPHLEELPEQVAEDAWDGIDFGVEAVSEGTDSGISAEAAGWDGIIFPESDSKDPGGDGWDGIDDAVALQITVLEAGTQAPEGVARGPDALTLLEYTETRNQFLDELMELEIFLAQRAVELSEEADVLSVSQFQLAPAILQGQTKEKMVTMVSVLEDLIGKLTSLQLQHLFMILASPRYVDRVTEFLQQKLKQSQLLALKKELMVQKQQEALEEQAALEPKLDLLLEKTKELQKLIEADISKRYSGRPVNLMGTSL
notes: source: E. coli Rosetta2 (DE3) pLysS, purified

No end group written: not given here. TAMRA = 5(6)-carboxytetramethylrhodamine

What all share (settings): both partners purified
In test [1] the target is B2. Put plainly: ITC. (ITC needs no label: the signal is the heat of the interaction.)
The test “GABARAP (purified)” has as its target B1. Put plainly: ITC.
In the next test the target is T1, HsUFM1 (purified) (human, UniProt P61960 1-85).
T1 construct: UFM1, Homo sapiens; 15N-labelled in the NMR titration; also called human UFM1; source: E. coli Rosetta2 (DE3) pLysS, purified (HisTrap, ion exchange, SEC)
T1 sequence (P61960 whole entry): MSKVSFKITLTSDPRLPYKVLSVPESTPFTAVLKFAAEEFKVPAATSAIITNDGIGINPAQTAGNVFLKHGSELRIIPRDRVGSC
Kind of test: native MS; HsUFM1 (5 μM) with peptide (25 μM); ammonium acetate, nanoelectrospray, Synapt G2Si.

The next test deals with T2, mCh-HsC53 (human, UniProt Q96JB5 1-506).
T2 construct: also called mCherry-tagged human C53; not shown: mCherry, N-terminal, kept
T2 sequence (looked up): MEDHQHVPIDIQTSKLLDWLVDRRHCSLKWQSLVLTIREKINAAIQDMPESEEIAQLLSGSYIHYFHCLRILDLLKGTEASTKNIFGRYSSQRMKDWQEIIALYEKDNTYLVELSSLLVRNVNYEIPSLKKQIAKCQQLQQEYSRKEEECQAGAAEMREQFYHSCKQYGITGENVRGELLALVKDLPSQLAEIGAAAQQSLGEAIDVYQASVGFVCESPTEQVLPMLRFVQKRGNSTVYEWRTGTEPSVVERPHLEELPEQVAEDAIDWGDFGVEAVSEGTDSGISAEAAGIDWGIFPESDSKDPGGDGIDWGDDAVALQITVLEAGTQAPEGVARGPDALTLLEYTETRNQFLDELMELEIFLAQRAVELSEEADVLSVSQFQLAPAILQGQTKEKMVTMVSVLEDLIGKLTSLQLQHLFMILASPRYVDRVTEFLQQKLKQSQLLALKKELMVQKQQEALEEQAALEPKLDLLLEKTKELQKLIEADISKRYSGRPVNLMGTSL
Kind of test: microscopy-based on-bead protein-protein interaction assay.

A further test deals with cAIM wt peptide. The test is described as above.
Another test deals with T3, AtUFM1 (purified) (Arabidopsis thaliana).
T3 construct: UFM1, Arabidopsis thaliana; 15N-labelled or unlabelled in NMR; also called HIS6-3C-AtUFM1; HIS6-AtUFM1; source: E. coli Rosetta2 (DE3) pLysS, purified (HisTrap, ion exchange, SEC)
Put plainly: fluorescence polarisation; fluorescence anisotropy; ATG8A or AtUFM1 (250 nM-320 μM) added to 50 nM TAMRA-labeled peptide, 10 min at 4°C. On the technique in general: Polarisation of emitted light reports the rotation of a fluorescent probe.

Another test deals with T4, ATG8A (purified) (Arabidopsis thaliana, UniProt Q8LEM4 1-117).
T4 construct: ATG8A, Arabidopsis thaliana; 3C site after the His6 tag; 15N-labelled or unlabelled in NMR; also called HIS6-3C-ATG8A; source: E. coli Rosetta2 (DE3) pLysS, purified (HisTrap, ion exchange, SEC)
T4 sequence (looked up): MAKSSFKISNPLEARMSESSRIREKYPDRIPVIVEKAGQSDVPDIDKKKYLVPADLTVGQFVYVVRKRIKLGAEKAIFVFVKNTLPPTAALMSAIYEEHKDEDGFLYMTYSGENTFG
The test is described as above.

One may read the Kd as a measure of binding affinity in units of concentration. A high value points to weaker binding. For orientation: stoichiometry N means a count of units in the complex or per binding partner.

In test [1], B1 registered a dissociation constant Kd of 11.2 µM. This lies in the double-digit micromolar range.

As to B2, the “fold increase in affinity against the C53 wild type” value with GABARAP (purified) worked out at 1.8 fold.

B3: AtUBA5 LIR peptide (peptide)
peptide: GPLHDDNEWNISVVDD
notes: LIR/UFIM peptide of UBA5; also called AtUBA5 LIR/UFIM peptide; UBA5 LIR/UFIM; source: synthetic peptide (synthetized in house)
B3: the “stoichiometry N” value with HsUFM1 (purified) came to 1.

B4: GST-GABARAP (natural protein, human, UniProt O95166 1-117, looked up)
chain: MKFVYKEEHPFEKRRSEGEKIRKKYPDRVPVIVEKAPKARIGDLDKKKYLVPSDLTVGQFYFLIRKRIHLRAEDALFFFVNNVIPPTSATMGQLYQEHHEEDFFLYIAYSDESVYGL
notes: also called human ATG8 isoform GABARAP; human ATG8; not shown: GST, N-terminal, kept
Consider B4, for which, in the test with mCh-HsC53, the binding result is “binds”.

B5: GST-ATG8A (natural protein)
chain: MAKSSFKISNPLEARMSESSRIREKYPDRIPVIVEKAGQSDVPDIDKKKYLVPADLTVGQFVYVVRKRIKLGAEKAIFVFVKNTLPPTAALMSAIYEEHKDEDGFLYMTYSGENTFG
notes: also called Arabidopsis ATG8A; not shown: GST, N-terminal, kept
Turning to B5, in the test with cAIM wt peptide, the binding result is given as “binds”.

Turning to {TAMRA}-AADSIDWDITVETPEIDWDVSMVEEV [sAIM1,2 peptide (AtC53 IDR-derived peptide that covers both sAIM1 and sAIM2)], the equilibrium dissociation constant (Kd) with AtUFM1 (purified) was found to be 148 µM; in the test with ATG8A (purified), 26.5 µM.
